Target: HIV-1 glycoprotein gp120 (HIV-1) (UniProt P04578)
Assay: ELISA

recombinant 2G12 mAb (IgG1) (antibody)
EC50: 2.3 pM
